Consider 84 variants from the RNAGym collection of RNA variant scans (doi:10.1073/pnas.2313332121).

B1: TPR 5TU (parent)
chain: GGAUCUUCUCGAUCUAACAAAAAAGACAAAUCUGCCACAAAGCUUGAGAGCAUCUUCGGAUGCAGAGGCGGCAGCCUUCGGUGGCGCGAUAGCGCCAACGUUCUCAACUAUGACACGCAAAACGCGUGCUCCGUUGAAUGGAGUUUAUCAUG

Variants at the floor of the assay were thinned out.

Variants of B1 are the subject of the data set. As to the kind of experiment: polymerase ribozyme fitness, log enrichment relative to wild type (log ratio); higher = more active; in vitro selection for triplet polymerase activity. A digest of the protocol:
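The heterodimeric triplet polymerase ribozyme's subunits were each mutagenized into PCR-built libraries and transcribed. Every library was selected once, in triplicate, by annealing with a biotinylated primer, the partner subunit and triplets, incubating frozen at −7 °C, gel-excising extended constructs, capturing on streptavidin beads and running RT-PCR. Input and output libraries were Illumina-sequenced, with genotypes kept only at ≥10 input reads and ≥1 read per output. Fitness, from inverse-variance-weighted replicate averages, is the base-2 logarithm of genotype enrichment over wild-type enrichment.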
Take A21C G88U A142U: the “polymerase ribozyme fitness (log ratio)” value was at most -4.2.

For G92C U104G, the “polymerase ribozyme fitness (log ratio)” value is -1.85.

With A47U G86U U134A, the “polymerase ribozyme fitness (log ratio)” value is -3.84.

For C14A A60G C85G C118G C132U, the “polymerase ribozyme fitness (log ratio)” value is -3.89.

As to C18G U78A G83A C118U, the “polymerase ribozyme fitness (log ratio)” value was at most -4.2.

Consider U9A, for which the “polymerase ribozyme fitness (log ratio)” value was -2.7.

Consider C51U U78G C96U, for which the “polymerase ribozyme fitness (log ratio)” value is at most -4.2.

As for U15A A47G U56A C57U G124C C149U, the “polymerase ribozyme fitness (log ratio)” value was -2.48.

Turning to G34A C75U, the “polymerase ribozyme fitness (log ratio)” value was -3.68.

G42A G48A U102C C103A: the “polymerase ribozyme fitness (log ratio)” value is at most -4.2.

G50U C54G A150U: the “polymerase ribozyme fitness (log ratio)” value is -2.15.

Take A17G C51G U55A C57U G92U C103A C108A: the “polymerase ribozyme fitness (log ratio)” value was at most -4.2.

A60U C63A C79G C96U A122U C123U: the “polymerase ribozyme fitness (log ratio)” value was at most -4.2.

For the variant A47C C87U, the “polymerase ribozyme fitness (log ratio)” value was -0.109.

As for U31A U90G, the “polymerase ribozyme fitness (log ratio)” value was at most -4.2.

Turning to C54A C85G C95G C114A U134G, the “polymerase ribozyme fitness (log ratio)” value was at most -4.2.

With U53A C96U C105G G112C U146C, the “polymerase ribozyme fitness (log ratio)” value was at most -4.2.

Take C5A U45G C85U A115U G141U: the “polymerase ribozyme fitness (log ratio)” value is -3.86.

Regarding A26U G62U U135A, the “polymerase ribozyme fitness (log ratio)” value was -2.77.

Take G50A: the “polymerase ribozyme fitness (log ratio)” value is -1.02.

In the case of A3U C51A G124C, the “polymerase ribozyme fitness (log ratio)” value is -2.87.

For G67U C85G, the “polymerase ribozyme fitness (log ratio)” value was at most -4.2.

Take G59U A73G: the “polymerase ribozyme fitness (log ratio)” value was -0.629.

For G58A U146G, the “polymerase ribozyme fitness (log ratio)” value was 0.231.

Consider G58C C103A U145G, for which the “polymerase ribozyme fitness (log ratio)” value is -1.84.

With A3C C87G, the “polymerase ribozyme fitness (log ratio)” value was -3.29.

Consider U7A U53A U56A, for which the “polymerase ribozyme fitness (log ratio)” value is at most -4.2.

Consider A60U U61A C69G C96U, for which the “polymerase ribozyme fitness (log ratio)” value is at most -4.2.

Regarding C85G U135A, the “polymerase ribozyme fitness (log ratio)” value is -3.38.

As to A28C A30U A60C C75A C76U C93A C95G, the “polymerase ribozyme fitness (log ratio)” value was at most -4.2.

Turning to C14G A21U A60U C75A U77G A89U C95A, the “polymerase ribozyme fitness (log ratio)” value was at most -4.2.

With G80C G92U C96U U135G A150G, the “polymerase ribozyme fitness (log ratio)” value was at most -4.2.

On to G48U C116U, for which the “polymerase ribozyme fitness (log ratio)” value is -0.65.

As to A28U U56A G81A C95U, the “polymerase ribozyme fitness (log ratio)” value is at most -4.2.

For C27U G46A C75A A91U G94A, the “polymerase ribozyme fitness (log ratio)” value was at most -4.2.

For G42C U44A A49C G126C C131A A142G A147U, the “polymerase ribozyme fitness (log ratio)” value was at most -4.2.

As for C8A A22G U56A C57U C85G, the “polymerase ribozyme fitness (log ratio)” value is at most -4.2.

As to A3U A30G C35G A39U G59A A60C C87U U134A, the “polymerase ribozyme fitness (log ratio)” value is at most -4.2.

With G94A G117U, the “polymerase ribozyme fitness (log ratio)” value is -0.469.

Regarding G59U U148G, the “polymerase ribozyme fitness (log ratio)” value is -3.83.

For the variant A3G U7G G46A A47U C51U G94C C125U G143A, the “polymerase ribozyme fitness (log ratio)” value is at most -4.2.

As to G143A U151G, the “polymerase ribozyme fitness (log ratio)” value was at most -4.2.

In the case of G94C G126A C132A, the “polymerase ribozyme fitness (log ratio)” value is -2.93.

For the variant A41G G88U C131G, the “polymerase ribozyme fitness (log ratio)” value is at most -4.2.

On to U6G C87U C131U, for which the “polymerase ribozyme fitness (log ratio)” value was determined as 0.928.

For the variant C93G A97G G140C A147U C149G, the “polymerase ribozyme fitness (log ratio)” value is at most -4.2.

Regarding C51A C87A G133U C149G, the “polymerase ribozyme fitness (log ratio)” value was at most -4.2.

For A24C C118U C125U, the “polymerase ribozyme fitness (log ratio)” value is at most -4.2.

As to C14G U148A, the “polymerase ribozyme fitness (log ratio)” value was -4.14.

Take U7G A16C: the “polymerase ribozyme fitness (log ratio)” value was -2.38.

In the case of C75U U139A G140C, the “polymerase ribozyme fitness (log ratio)” value is -4.11.

With A3G C8G A30G G48C A64C C87G A137G, the “polymerase ribozyme fitness (log ratio)” value is at most -4.2.

Take U56A G80C G92A: the “polymerase ribozyme fitness (log ratio)” value was at most -4.2.

For A16G A22U A47C C95A C96U, the “polymerase ribozyme fitness (log ratio)” value is -3.89.

For the variant A47C G59C G86A, the “polymerase ribozyme fitness (log ratio)” value is at most -4.2.

With G58A C87U G100C A122C G126A G141U, the “polymerase ribozyme fitness (log ratio)” value was at most -4.2.

A21U G86A: the “polymerase ribozyme fitness (log ratio)” value is -0.555.

With G42A G48A G68A G86U C132A, the “polymerase ribozyme fitness (log ratio)” value is at most -4.2.

A37C C85U G88C A137U: the “polymerase ribozyme fitness (log ratio)” value was at most -4.2.

With C10G C32G C38G U55G C87A G92A C125G G126A, the “polymerase ribozyme fitness (log ratio)” value is -4.1.

Take C36A U78A: the “polymerase ribozyme fitness (log ratio)” value was at most -4.2.

C36A A52C C85G A120G A122U U148A: the “polymerase ribozyme fitness (log ratio)” value is -3.85.

For the variant C27U G62U A120C A122U, the “polymerase ribozyme fitness (log ratio)” value was -2.46.

Regarding A60G C75G, the “polymerase ribozyme fitness (log ratio)” value was -2.36.

With U15A A17C A23U U55A G84A G92A G94A U102G C116G, the “polymerase ribozyme fitness (log ratio)” value was at most -4.2.

Consider G58C C63G C96G, for which the “polymerase ribozyme fitness (log ratio)” value was -0.61.

Turning to C85A C96U A137U U144A, the “polymerase ribozyme fitness (log ratio)” value was at most -4.2.

Regarding G59C G62A A122U U134G, the “polymerase ribozyme fitness (log ratio)” value was -3.13.

For U53C G83C C116G, the “polymerase ribozyme fitness (log ratio)” value was -3.05.

As for A20G A24U U111A A142U G143U, the “polymerase ribozyme fitness (log ratio)” value is at most -4.2.

For the variant A39U A60G A137U, the “polymerase ribozyme fitness (log ratio)” value was -4.19.

As for U31A C57A C87U A97C G117A A119U, the “polymerase ribozyme fitness (log ratio)” value came to 1.02.

As to C51U U61A G86C, the “polymerase ribozyme fitness (log ratio)” value is -4.06.

For the variant U44A C57G C69G G80C U82A C108A U109G G141C, the “polymerase ribozyme fitness (log ratio)” value is at most -4.2.

In the case of A41C C54A U56A A73U A89U U101G A115C C129G U134A, the “polymerase ribozyme fitness (log ratio)” value is at most -4.2.

For U7A A28G A40U A49C G50C C87A U144G, the “polymerase ribozyme fitness (log ratio)” value is at most -4.2.

Consider A20U G86A C87G A91U C118A, for which the “polymerase ribozyme fitness (log ratio)” value is at most -4.2.

Turning to A24C G34A C87A G126U, the “polymerase ribozyme fitness (log ratio)” value is -4.18.

For the variant A12G A20U A29U U53G A66C, the “polymerase ribozyme fitness (log ratio)” value is -4.16.

As to A49U A66G G80C G84U U102G, the “polymerase ribozyme fitness (log ratio)” value was at most -4.2.

As for U55A U82G C116A A121U A137C, the “polymerase ribozyme fitness (log ratio)” value is -3.5.

For the variant A91C A120G G126A, the “polymerase ribozyme fitness (log ratio)” value was at most -4.2.

With C116U, the “polymerase ribozyme fitness (log ratio)” value worked out at 0.103.

Consider U109G C116A, for which the “polymerase ribozyme fitness (log ratio)” value is -2.26.
